The target in experiment [1] is T1, mouse melanocortin 5 receptor (mouse, UniProt P41149 1-325). In words: radioligand binding.
Experiment [2] deals with T2, mouse melanocortin 3 receptor (mouse, UniProt P33033 1-323). In words: radioligand binding.
In experiment [3] the target is T3, mouse melanocortin 1 receptor (mouse, UniProt Q01727 1-315). As to the kind of experiment: radioligand binding.
Experiment [4] has as its target T4, mouse melanocortin 4 receptor (mouse, UniProt P56450 1-332). In words: cell-based or functional assay.
Experiment [5] addresses T1, mouse melanocortin 5 receptor. In words: cell-based or functional assay.
Experiment [6] concerns the target T2, mouse melanocortin 3 receptor. As to the kind of experiment: cell-based or functional assay.
The target of experiment [7] is T3, mouse melanocortin 1 receptor. As to the kind of experiment: cell-based or functional assay.
In experiment [8] the target is T4, mouse melanocortin 4 receptor. As to the kind of experiment: radioligand binding.
The target in experiment [9] is human melanocortin 4 receptor (human, UniProt P32245 1-332). As to the kind of experiment: radioligand binding.
Sequence of human melanocortin 4 receptor (P32245 whole entry): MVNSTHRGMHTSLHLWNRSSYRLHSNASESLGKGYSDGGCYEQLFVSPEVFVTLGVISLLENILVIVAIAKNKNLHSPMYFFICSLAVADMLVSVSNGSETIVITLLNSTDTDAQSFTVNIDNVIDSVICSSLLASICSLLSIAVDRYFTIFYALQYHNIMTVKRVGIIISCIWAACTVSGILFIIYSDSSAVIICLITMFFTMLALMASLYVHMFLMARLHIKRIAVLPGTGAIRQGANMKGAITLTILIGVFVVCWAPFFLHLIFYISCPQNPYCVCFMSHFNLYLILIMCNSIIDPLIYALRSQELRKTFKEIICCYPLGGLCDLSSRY

Square brackets hold non-standard residues; d marks the D form. Dap = NC[C@H](N)C(=O)O

T1 sequence (P41149 whole entry): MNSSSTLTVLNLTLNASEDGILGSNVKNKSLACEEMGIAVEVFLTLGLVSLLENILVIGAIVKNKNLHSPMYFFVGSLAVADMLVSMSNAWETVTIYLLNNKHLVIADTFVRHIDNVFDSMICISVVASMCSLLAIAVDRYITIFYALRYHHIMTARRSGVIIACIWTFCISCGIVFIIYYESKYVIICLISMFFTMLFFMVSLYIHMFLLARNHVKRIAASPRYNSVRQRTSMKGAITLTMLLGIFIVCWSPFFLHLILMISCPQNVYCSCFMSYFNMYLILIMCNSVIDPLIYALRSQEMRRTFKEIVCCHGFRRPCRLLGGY
T4 sequence (P56450 whole entry): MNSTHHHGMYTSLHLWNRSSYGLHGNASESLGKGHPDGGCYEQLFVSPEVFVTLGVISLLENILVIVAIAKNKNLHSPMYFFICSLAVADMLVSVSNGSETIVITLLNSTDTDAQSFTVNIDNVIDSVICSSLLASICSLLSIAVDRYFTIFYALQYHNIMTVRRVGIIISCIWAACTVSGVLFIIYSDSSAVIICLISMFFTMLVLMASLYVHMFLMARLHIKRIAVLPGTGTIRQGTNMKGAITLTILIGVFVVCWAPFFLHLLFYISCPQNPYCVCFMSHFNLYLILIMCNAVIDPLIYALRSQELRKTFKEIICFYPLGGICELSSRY
T3 sequence (Q01727 whole entry): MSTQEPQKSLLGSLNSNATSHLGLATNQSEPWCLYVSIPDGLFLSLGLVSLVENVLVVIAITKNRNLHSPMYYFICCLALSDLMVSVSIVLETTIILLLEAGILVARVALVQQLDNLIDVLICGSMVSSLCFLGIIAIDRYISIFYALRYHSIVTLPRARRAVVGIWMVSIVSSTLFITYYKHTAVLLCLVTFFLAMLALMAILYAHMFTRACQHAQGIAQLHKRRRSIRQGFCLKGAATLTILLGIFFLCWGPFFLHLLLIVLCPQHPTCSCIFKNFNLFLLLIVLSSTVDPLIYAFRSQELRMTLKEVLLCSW
T2 sequence (P33033 whole entry): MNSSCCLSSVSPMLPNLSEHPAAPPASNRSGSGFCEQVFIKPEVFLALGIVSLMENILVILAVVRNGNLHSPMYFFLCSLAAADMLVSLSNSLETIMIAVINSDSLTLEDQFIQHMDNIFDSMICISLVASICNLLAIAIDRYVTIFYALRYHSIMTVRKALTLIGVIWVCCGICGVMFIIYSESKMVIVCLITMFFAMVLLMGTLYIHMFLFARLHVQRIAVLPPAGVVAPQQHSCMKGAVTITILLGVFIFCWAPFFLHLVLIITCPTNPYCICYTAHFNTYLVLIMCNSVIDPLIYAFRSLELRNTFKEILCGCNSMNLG

B1: c[Pro-Arg-Phe-Phe-Dap-Ala-Phe-DPro] (peptide)
chain: PRFFXAFP
modifications: Dap (diaminopropionic acid) at position 5 (X in the letters); DPro at position 8; head-to-tail cyclised (macrocycle)
For orientation: IC50 means the point on the concentration scale where inhibition reaches its midpoint. A low value points to greater potency. On to B1, for which the half-inhibitory concentration (IC50) in experiment [1] amounted to 1.7 µM; in [2], 3.2 µM; in experiment [3], 5.2 µM.
Consider cyclo(PCFF[Dap]AF[dP]) [c[Pro-Cys-Phe-Phe-Dap-Ala-Phe-DPro]], for which the “agonist activity, cAMP AlphaScreen, HEK293 cells stably expressing the receptor” value (“agonist activity, cAMP AlphaScreen” for short) is 42 % of maximal NDP-MSH response at 100 μM in experiment [4], greater than 100 µM in experiment [5], 29 % of maximal NDP-MSH response at 100 μM in experiment [6] and 4 µM in experiment [7]. Moreover, the concentration for half-maximal inhibition (IC50) in experiment [8] is 10 µM; in [1], greater than 100 µM; in [2], 49 µM; in experiment [3], 33 µM; in experiment [9] it was 15.7 µM.
With cyclo(PRYF[Dap]AF[dP]) [c[Pro-Arg-Tyr-Phe-Dap-Ala-Phe-DPro]], the “agonist activity, cAMP AlphaScreen” value was greater than 100 µM in [4], greater than 100 µM in experiment [5], greater than 100 µM in experiment [6] and 48 % of maximal NDP-MSH response at 100 μM in experiment [7]. The IC50 worked out at 0.134 µM in experiment [8]; 36 µM in [1]; 28 µM in [2]; 18 µM in [3]; 1.02 µM in experiment [9].
For the molecule cyclo(PRFF[Dap]VF[dP]) [c[Pro-Arg-Phe-Phe-Dap-Val-Phe-DPro]], the “agonist activity, cAMP AlphaScreen” value in [4] is 37 % of maximal NDP-MSH response at 100 μM; in experiment [5], greater than 100 µM; in experiment [6], 27 % of maximal NDP-MSH response at 100 μM; in [7] it was 79 % of maximal NDP-MSH response at 100 μM. The IC50 was found to be 2.7 µM in experiment [1], 10 µM in [2], 8 µM in experiment [3] and 0.0322 µM in [9].
Regarding cyclo(PHFF[Dap]AF[dP]) [c[Pro-His-Phe-Phe-Dap-Ala-Phe-DPro]], the “agonist activity, cAMP AlphaScreen” value in [4] is greater than 100 µM; in experiment [5], greater than 100 µM; in [6] it was greater than 100 µM; in [7], 56 % of maximal NDP-MSH response at 100 μM. For the same molecule, the IC50 was 1 µM in experiment [8]; 12 µM in [1]; 15 µM in experiment [2]; 25 µM in [3]; 2.7 µM in experiment [9].
cyclo(PRFFNAF[dP]) [c[Pro-Arg-Phe-Phe-Asn-Ala-Phe-DPro]]: the half-maximal inhibitory concentration (IC50) in [3] is 9 µM.
Take cyclo(PCFFNAF[dP]) [c[Pro-Cys-Phe-Phe-Asn-Ala-Phe-DPro]]: the “agonist activity, cAMP AlphaScreen” value is greater than 100 µM in [4], greater than 100 µM in [6] and 46 % of maximal NDP-MSH response at 100 μM in [7]. For the same molecule, the concentration for half-maximal inhibition (IC50) is 1.9 µM in experiment [8]; greater than 100 µM in experiment [1]; greater than 100 µM in experiment [2]; 24.6 µM in experiment [3]; 19.3 µM in experiment [9].
On to cyclo(PHFFNAF[dP]) [c[Pro-His-Phe-Phe-Asn-Ala-Phe-DPro]], for which the “agonist activity, cAMP AlphaScreen” value in experiment [4] was greater than 100 µM; in [5], greater than 100 µM; in [6] it was greater than 100 µM; in experiment [7], 23 % of maximal NDP-MSH response at 100 μM. The IC50 in [8] was 6.7 µM; in [1], greater than 100 µM; in [2] it was greater than 100 µM; in [3], greater than 100 µM; in experiment [9] it was 22 µM.
As for cyclo(PRFFNVF[dP]) [c[Pro-Arg-Phe-Phe-Asn-Val-Phe-DPro]], the “agonist activity, cAMP AlphaScreen” value is 16 % of maximal NDP-MSH response at 100 μM in experiment [4], greater than 100 µM in [5], greater than 100 µM in experiment [6] and 23 % of maximal NDP-MSH response at 100 μM in [7]. Also, the IC50 in [8] amounted to 0.038 µM; in experiment [1], 29 µM; in experiment [2], 53 µM; in experiment [3] it was 15 µM; in experiment [9], 0.25 µM.
In the case of cyclo(PRYFNAF[dP]) [c[Pro-Arg-Tyr-Phe-Asn-Ala-Phe-DPro]], the “agonist activity, cAMP AlphaScreen” value in experiment [4], in [6] and in experiment [7] was greater than 100 µM throughout. Further, the IC50 in [8] is 2 µM; in experiment [1], greater than 100 µM; in experiment [2], greater than 100 µM; in experiment [3], greater than 100 µM; in experiment [9] it was 14.3 µM.

(Values after article PMC7250496 (Journal of medicinal chemistry, 2020).)
